These substances were tested against GST-p65, purified recombinant (UniProt Q04206) (assay: alanine-scanning peptide array probed with GST-p65, anti-GST immunoblot).
Sequence of UniProt Q04206 (Q04206 whole entry, looked up): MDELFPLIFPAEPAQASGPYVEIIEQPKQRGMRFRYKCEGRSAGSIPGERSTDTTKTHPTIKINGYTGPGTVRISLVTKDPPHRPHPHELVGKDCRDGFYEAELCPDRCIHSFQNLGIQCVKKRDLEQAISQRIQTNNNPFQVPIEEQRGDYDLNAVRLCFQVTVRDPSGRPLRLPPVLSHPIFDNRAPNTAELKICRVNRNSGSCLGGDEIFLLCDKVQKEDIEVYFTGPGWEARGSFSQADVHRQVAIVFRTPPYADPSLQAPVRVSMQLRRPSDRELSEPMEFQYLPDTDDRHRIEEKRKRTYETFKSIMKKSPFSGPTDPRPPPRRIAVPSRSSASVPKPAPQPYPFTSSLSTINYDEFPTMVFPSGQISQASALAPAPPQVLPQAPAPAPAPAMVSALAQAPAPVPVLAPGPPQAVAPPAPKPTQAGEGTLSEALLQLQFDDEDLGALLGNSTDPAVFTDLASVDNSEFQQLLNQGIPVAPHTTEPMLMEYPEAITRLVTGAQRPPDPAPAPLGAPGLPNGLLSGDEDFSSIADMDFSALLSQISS

percent of parent (% of parent peptide)	Substance
< 60	USP7 peptide C25 (877-894, …) F894A
< 60	USP7 peptide C30 (897-914, …) F903A
< 60	USP7 peptide C13 (829-846, …) F839A
< 60	USP7 peptide C25 (877-894, …) F888A
< 60	USP7 peptide C30 (897-914, …) E905A
< 60	USP7 peptide C30 (897-914, …) L899A
< 60	USP7 peptide C13 (829-846, …) Y845A
< 60	USP7 peptide C13 (829-846, …) D833A

The remaining lines, values behind:

Substance	percent of parent (% of parent peptide)
USP7 peptide C25 (877-894, …) D887A	< 60
USP7 peptide C13 (829-846, …) M835A	< 60
USP7 peptide A23 (629-646, …) R634A	< 60
USP7 peptide C20 (857-874, …) Q872A	< 60
USP7 peptide A23 (629-646, …) K633A	< 60
USP7 peptide C30 (897-914, …) K914A	< 60
